Assay results published in publication PMC6708486 (Nature chemistry, 2019).
Where “and” joins values, the source holds several entries; their conditions need not be identical. Identical values can stand only once.

Experiments:
AUC = target: the molecule itself; assay: AUC
crystal structure = target: the molecule itself; assay: crystal structure

| Protein | stoichiometry N (AUC) | binding result (crystal structure) |
| --- | --- | --- |
| LepI (enzyme) ETVAAIKTLIQQLAQSTDQFGRAEINDALRELQYSLETPFDTVMRMSLDTCQVAVARIGSDLGLFKHLSQCASPQSAEELADHLGCGRELMSRLLRYMASVRMVQQTDDIKYISSNITQTLAVPGLEAGMRHAFENLWPVLMALPDFLAERKYPDIVDAKDTAFQKAFNTDQDCFHWLATQPTRIANFKVLLTDERTPNFLSTFPLEKELGSWSAEPEKALFVDIGGGMGHACIRLREKYPNQPGRVILQDLPPVLQAAQATLPLSGIESMPHNFHTPQPVQGAKFYFLRLILRDFPDHQALEILQNIVPAMDAESRIVIDDGVPPEKGARWAETGTDICIMSALGSKERTQRQWEELAAKAGLQLQALYQYTWPVVNAAMVFSLQ | 2 and 4 |  |
| LepI (C52A) (enzyme) ETVAAIKTLIQQLAQSTDQFGRAEINDALRELQYSLETPFDTVMRMSLDTAQVAVARIGSDLGLFKHLSQCASPQSAEELADHLGCGRELMSRLLRYMASVRMVQQTDDIKYISSNITQTLAVPGLEAGMRHAFENLWPVLMALPDFLAERKYPDIVDAKDTAFQKAFNTDQDCFHWLATQPTRIANFKVLLTDERTPNFLSTFPLEKELGSWSAEPEKALFVDIGGGMGHACIRLREKYPNQPGRVILQDLPPVLQAAQATLPLSGIESMPHNFHTPQPVQGAKFYFLRLILRDFPDHQALEILQNIVPAMDAESRIVIDDGVPPEKGARWAETGTDICIMSALGSKERTQRQWEELAAKAGLQLQALYQYTWPVVNAAMVFSLQ |  | binds |
